“And” between values parts separate entries of the source, which are not always exact repeats. Equal values may be shown once.
Tests used:
[1] = molecular target: DM2h^Bla-1-Myc (Arabidopsis thaliana); experiment: native gel or EMSA
[2] = molecular target: ΔTPDM3^Col-0 DQN-AAA (D332A Q345A N349A triple mutant, recombinant) (Arabidopsis thaliana); experiment: SEC
[3] = molecular target: ΔTPDM3^Col-0 S214A (recombinant) (Arabidopsis thaliana); experiment: SEC
[4] = molecular target: ΔTPDM3^Col-0 Q345R (recombinant) (Arabidopsis thaliana); experiment: SEC
[5] = molecular target: ΔTPDM3^Hh-0 S214A (recombinant) (Arabidopsis thaliana); experiment: SEC
[6] = molecular target: ΔTPDM3^Col-0 DQ-RR (D332R Q345R double mutant, recombinant) (Arabidopsis thaliana); experiment: SEC
[7] = molecular target: ΔTPDM3^Col-0 (recombinant, 52-515) (Arabidopsis thaliana); experiment: cryo-EM structure
[8] = molecular target: ΔTPDM3^Col-0 D332R (recombinant) (Arabidopsis thaliana); experiment: SEC
[9] = molecular target: ΔTPDM3^Hh-0 (recombinant, 52-515) (Arabidopsis thaliana); experiment: cryo-EM structure

Substance: DM2h^Bla-1-Myc (receptor)
- stoichiometry N [1]: 2 and 4

Substance: ΔTPDM3^Col-0 DQN-AAA (D332A Q345A N349A triple mutant, recombinant) (enzyme)
- stoichiometry N [2]: 6

Substance: ΔTPDM3^Col-0 S214A (recombinant) (enzyme)
- stoichiometry N [3]: 6

Substance: ΔTPDM3^Col-0 Q345R (recombinant) (enzyme)
- stoichiometry N [4]: 6

Substance: ΔTPDM3^Hh-0 S214A (recombinant) (enzyme)
- stoichiometry N [5]: 6

Substance: ΔTPDM3^Col-0 DQ-RR (D332R Q345R double mutant, recombinant) (enzyme)
- stoichiometry N [6]: 6

Substance: ΔTPDM3^Col-0 (recombinant, 52-515) (enzyme)
- stoichiometry N [7]: 6

Substance: ΔTPDM3^Col-0 D332R (recombinant) (enzyme)
- stoichiometry N [8]: 6

Substance: ΔTPDM3^Hh-0 (recombinant, 52-515) (enzyme)
- stoichiometry N [9]: 6

Source: paper doi:10.1101/2024.10.28.620575
